Substance: gamma secretase (endogenous, HEK cells)
- AICD production and signaling activity (C99GVP-K28S): little difference in their respective AICD production (FIG. 9A, lower panels) and signaling activity (FIG. 9D)
- Aβ40 (secreted, ELISA) (C99GVP-K28S): the K28S substitution resulted in an even more substantial (˜90%) decrease in both measurements
- total Aβ (secreted) (C99GVP-K28S): the K28S substitution resulted in an even more substantial (˜90%) decrease in both measurements
- secreted Aβ (C99GVP-SLSS): This mutation led to a marked reduction (˜97%) in secreted Aβ
- Aβ secretion (C99GVP-SREBP1-gsnk): also maintained normal Aβ secretion
- AICD production and signaling activity (C99GVP-G25S): little difference in their respective AICD production (FIG. 9A, lower panels) and signaling activity (FIG. 9D)
- secreted Aβ (C99GVP-G25S): the other two mutations, G25S and N27S, showed no obvious effect on secreted Aβ
- AICD production and signaling activity (C99GVP-N27S): little difference in their respective AICD production (FIG. 9A, lower panels) and signaling activity (FIG. 9D)
- secreted Aβ (C99GVP-N27S): the other two mutations, G25S and N27S, showed no obvious effect on secreted Aβ
- AICD production and signaling activity (C99GVP-S26L): little difference in their respective AICD production (FIG. 9A, lower panels) and signaling activity (FIG. 9D)
- Aβ40 (secreted, ELISA) (C99GVP-S26L): a 52.7±2.3% drop of Aβ40
- total Aβ (secreted) (C99GVP-S26L): The S26L mutation led to a 65.7±8.5% reduction in total Aβ
